Test results: patent US20220112180, “NOVEL COMPOUNDS AS POTENTIAL THERAPEUTIC AGENTS TARGETING VARIOUS NEURODEGENERATIVE DISEASES” (The Hong Kong University of Science and Technology, published 2022)

T1: hnRNP H RRM domain (RRM1/2) (UniProt P31943 P31943:11-188)
T1 sequence: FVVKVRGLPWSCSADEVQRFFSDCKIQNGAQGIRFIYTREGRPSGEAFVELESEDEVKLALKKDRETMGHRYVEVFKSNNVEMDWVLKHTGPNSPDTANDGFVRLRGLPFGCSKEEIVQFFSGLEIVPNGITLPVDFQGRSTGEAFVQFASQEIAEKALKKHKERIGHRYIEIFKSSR


Tests used:
[1] = molecular target: T1, hnRNP H RRM domain (RRM1/2); assay: 1H-15N HSQC NMR titration at 1:0.5, described as potent binding; 20 mM potassium phosphate, 70 mM KCl, pH 7.0, 25 C; settings: tags: His6 cleaved by 3C protease; pET-28a(+), E. coli BL21(DE3); 15N-labelled; G4
Method: (§1) Titration experiments were performed by recording a series of 2D ¹⁵N-HSQC spectra on uniformly ¹⁵N-labeled RRM domain (˜0.1 mM) in the presence of different amounts of DNA/RNA or compounds at 25° C. Protein samples and stock solutions of DNA/RNA were all prepared in 20 mM potassium phosphate buffer and 70 mM KCl, pH 7.0, 10% D₂O. All compounds were dissolved in isotope-labeled d₆-DMSO (Sigma-Aldrich) at about 50 mM concentration, working as stock solutions. To avoid chemical shift changes of protein samples resulted from d₆-DMSO addition, 10 μL d₆-DMSO was added into 500 μL of 0.1 mM protein solution in the NMR buffer (20 mM potassium phosphate buffer and 70 mM KCl, pH 7.0, 10% D₂O) and then the 2D HSQC was recorded as a reference.

[2] = molecular target: T1, hnRNP H RRM domain (RRM1/2); assay: 1H-15N HSQC NMR titration at 1:0.5; 20 mM potassium phosphate, 70 mM KCl, pH 7.0, 25 C; settings: tags: His6 cleaved by 3C protease; pET-28a(+), E. coli BL21(DE3); 15N-labelled; G4
Method: as §1

| Binder | binding result [1] | binding result [2] |
| --- | --- | --- |
| GGGGCCGGGGCCGGGGCCGGGGCC (structured_DNA) [DNA (G4C2)4 G4] | binds |  |
| GGGGCCGGGGCC (ssRNA) [RNA (G4C2)2 G4] |  | binds |
